Assay results published in the nanobody polyreactivity screen of Harvey et al. (2022).

Assay: yeast display, Sf9 membrane polyspecificity reagent, FACS + sequencing; frameworks hold sequencing errors
Summary of the method: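 Galactose-induced (36–48 hours) yeast carrying a synthetic nanobody display library were exposed to 10% biotinylated, detergent-solubilized Sf9 membrane reagent at 4 °C for 1 hour. FACS followed streptavidin microbead enrichment, using low and high (top ~1%) gates for expression (anti-HA) and reagent binding (streptavidin). Colony PCR, MiSeq 2 × 250 sequencing and CDR-length filtering followed. Labels for polyreactivity reflect the gate of origin.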

Sequence: QVQLVESGGGLVQAGGSLRLSCAASGITFSRNAMGWYRQAPGKERELVAVISTRGGRTYYADSVKGRFTISRDNAKNTFYLQMNSLKPEDTAVYYCAASPDPYWRRMDYWGQGTQVTVSS
- polyreactivity (PSR sort gate): high polyreactivity

Sequence: QVQLVESGGGLVQAGGSLRLSCAASGGTFFGYAMGWYRPAPGKERELVAAISGSGGRTYYADSVKGRFTISRDNAKNTVYLQMNSLKPEDTAVYYCAADATHETYYPFYYWGQGTQVTVSS
- polyreactivity (PSR sort gate): high polyreactivity

Sequence: QVQLVESGGGLVQAGGSLRLTCAASGRIFYLNAMGWYRQAPGKERELVAGLTNSTTGTYYADSVKGRFTISRDNAKNTVDLQMNSLKPEDTAVYYCNSDVAYEEPVETYDYWGQGTQVTVSS
- polyreactivity (PSR sort gate): low polyreactivity

Sequence: QVQLVESGGGLVQAGGSLRLSCAASGLIFHHNAMGWYRQTPGKERELVAAISRSAGSTYYADSVKGRFTISRDNAKNTVYLQMKSLKPEDTAVYYCAKGPTPTSKYDTVGYGYWGQGTQVTVSS
- polyreactivity (PSR sort gate): low polyreactivity

Sequence: QVQLVESGGVLVQAGGSLRLSCAASGSIFWSNAMGWSRQAPGKERELVAAITTSDGSTYYADSVKGRFTISRDHAKNTVYLQMNSLKPEDSAVYYCAADASTWYTEEYWGQGTQVTVSS
- polyreactivity (PSR sort gate): low polyreactivity

Sequence: QVQLVESGGGLVQAGGSLSLSCAASGRIYNYAMGWYRQAPGKERELVAAITGRGGSTYYADSVKGRFTISRDNAKNTVYLQMNSLKPEDTAVYYCARAGGPRHDWGQGTQVTVSS
- polyreactivity (PSR sort gate): high polyreactivity

Sequence: QVQLVESGGGLVQAGGSLRLSWAAYGRNFRPNTMGWYRQAPGKEREMVAAISRSGGSTYYADSVKARFTISRDNAKNTVYLQMNSLKPEDTAVYYCAKRYGGIVGVGAYKYEYWGQGTQVTVSS
- polyreactivity (PSR sort gate): high polyreactivity

Sequence: QVQLVESGGGLVQAGGSLRLSCAAYGRTFEINAMGWYRQATGKERELVAAISWDDGSTYYADSVKGRFTISRDNAKNTVYLQMNSLKPEDTAVYYCAAESPLHYTHRRGYEYWGQGTQVTVSS
- polyreactivity (PSR sort gate): low polyreactivity

Sequence: QVQLVESGGGLVQAGGSLRLSCAASGGIFSWYAMGWYRQAPGKERELVAAISWSGSRTYYADSVKGRFTISRDNAKNTVYLQMNCLKPEDTAVYYCAADYIFRRYPVGGIYDYDYWGQGTQVTVSS
- polyreactivity (PSR sort gate): high polyreactivity

Sequence: QVQLVESGGGLVQAGGSLRLSCAASGFIFSRYAMGWYRQAPGKERELVAAISIGGSTYYADSVKGRFTISRDNAKNTVYLQMNSLKPEDTAVYYCAVDYRHSSSWNAGPWEMYYWGQGTQVTVSS
- polyreactivity (PSR sort gate): low polyreactivity

Sequence: QVQLVESGGGLVQAGGSLRLSCAASGITFYWYTMGLYRQAPGKERELVAAISSRGSSTRYADSVKGRFTISRDNAKNTVYLQMNSLKPEDTAVYYCAADDLSDGYYDEAYEDNYWGQGTQVTVSS
- polyreactivity (PSR sort gate): low polyreactivity

Sequence: QVQLVESGGGLVQAGGSLRLSCAASGSIFGYNAMGWYRQAPGKERELVAAISYSGGSTYYADSVKWRFTISRDNAKNTVYLQMNSLKPEDTAVYYCNKYIRRYLIYGSWGQGTQVTVSS
- polyreactivity (PSR sort gate): high polyreactivity

Sequence: QVQLVESGGGLVQAGGSLRLSCAASGSIFVDNAMGWYRQAPGKERELVAAINWSGGSTYYADSVKGRFTISRDNAKNTVYLQMNSLKQEDTAVYYCNAARPVQTWDEQSWYDYWGQGTQVTVSS
- polyreactivity (PSR sort gate): low polyreactivity

Sequence: HVQLVESGGGFVQAGGSLRLICAASVRNFDVYSMGWYRQAPGKERELVAAISRRGGSTYYADSVKGRFTISRDNAKNTVYLQMNRLKPEDTAVYYCAAQSRQAYMTYGYWGLGTQVTVSS
- polyreactivity (PSR sort gate): high polyreactivity

Sequence: QVQLEESGGGLVQAGGSLRLSCAASGFTFYSYVMGWYRPAPGKVTELVAAIYWSGGSTYYADSVKGRFTISRDNAKYTVYLQMNSLKPEDTAVYYCAARRYASRNGYLYDYWGQGTQVTVSS
- polyreactivity (PSR sort gate): high polyreactivity

Sequence: QVQLVESGGGLVQAGGSLRLSCAASGRTFWYSAMGWYRQAPGKEREFVAAISWSGGSTYYADSVKGRFTISRDNAKNTVYLQMNSLKPEDTAVYYCAADRYDSSQFYYWGQGTQVTVSS
- polyreactivity (PSR sort gate): low polyreactivity

Sequence: QVQLVESGGGLVQAGGSLRLSCAASGFIFHTYAMGWYRQAPGKEREFVAAISGGTSSTYYADSVKGRFTISRDNAKNTVYLQMNSLKPEDTAVYYCAARSRRGGYPRYYYWGQGTQVTVSS
- polyreactivity (PSR sort gate): high polyreactivity

Sequence: QVQLEESGGGLVQAGGSLRLSCAASGSIFPWYAMGWYRQAPGKERELVAVITSGGSTNYADSVKGRFTISRANAKNTVYLQMNSLYPEDTAVYYCYADAPLDDFSPRFEVSTEHSWGQGTQVTVSS
- polyreactivity (PSR sort gate): low polyreactivity

Sequence: QVQLVESGGGLVQAGGSLRLSCAASGSIFQPNMGWYRQAPGKERELVASITTGTTKYADSVKGRFTISRDNAKNTVYLQMNSLKPEDTAVYYCAADLQATVYLIFGYWGQGTQVTVSS
- polyreactivity (PSR sort gate): low polyreactivity

Sequence: QVQLVESGGGLVQAGGSLRLSCAASGFIFLGNAKGWYRQATGKERELVAAISSGGSTYADSVKGRFTISRDNAKNTVYLQMNSLKPEDTAVYYCAVDRAFRAQNYHEYDYWGQGTQVTVSS
- polyreactivity (PSR sort gate): low polyreactivity

Sequence: QVQLVESGGGLVQAGGSLRLSCAASVRTFSYYAMGWYRQAPGKERELVASISGGGRTNYADSVKGRFTISRDNAKKTVYLQMNSLKPEDTAVYYCAARYQITRQYKRGYWGQGNQVTVSS
- polyreactivity (PSR sort gate): high polyreactivity

Sequence: QVQLVESGGGLVQAGGSLRLSCAASGITFDVNAMGWYRQAPGKERELVAAITAGGNTYYADSVKGRFTISRDNAKNTVYLQMNSLKPEDTAVYYCAAVSTSLYWAGYDYWGQGTQVTVSS
- polyreactivity (PSR sort gate): low polyreactivity

Sequence: QVQLVESGGGLVQAGGSLRLSCAASGRTFSRYAMGWYRQAPGKERELVAAISWSGGTTHYADSVKGRFTISRDNAKNTVYLQMNSLKPEDTAVYYCNKLRQIEFWGQGTQVTVSS
- polyreactivity (PSR sort gate): high polyreactivity

Sequence: QVQLVESGGGLVQAGGSLRLSCAASGRTCYINAMGWYRQAPGKERELVAAISSGGSTNYADSVKGRFTISRDNAKNTVYLQMNSLKPEDTAVYYCNAKYYQGTPVELDYWGQATQVTVSS
- polyreactivity (PSR sort gate): low polyreactivity

Sequence: TYRGTTTYYADSVKGRFPIARDYAKNTVYLQMHSLKPEETAVYNWTRYYPSEYDYWGQGTHVTVSS
- polyreactivity (PSR sort gate): high polyreactivity

Sequence: QVQLVESGGGLVQAGGSLRLTSAASGFTFPYTDMGWYRPAPGKERELVADISSGGSTYYADSVKGRFTISRDNAKINVYLQMISLKPEDTAVYYCAAREAYSIRIYQGFGYWGQGTQVTVSS
- polyreactivity (PSR sort gate): low polyreactivity

Sequence: QVHLLESGGGLVQAGGSLRLICAASGRILYPYALVWYRQAPGKETELVAAITFRGGNTYYADSVKARFTLSRDYAKNTVYLQMNSMKPEDTAVYFCAARKSPRSQVRGRSYYWGQGSQVTVSS
- polyreactivity (PSR sort gate): high polyreactivity

Sequence: QVQLVESGGGLVQAGGSLRLSCAASGSIIRNAMGWYRQAPGKERELVAAINWSGGSTYYADSVKGRFTISRDNAKNTVYLQMNSLKPEDTAVYYCNKVRGTVHATRRNGDYWGQGTQVTVSS
- polyreactivity (PSR sort gate): high polyreactivity

Sequence: QVQLVESVGGLVQAGGSLRLSCAASGSIFSYYAMGWYRQAPGKERELVAAITSSGDSTYYADSVKGRFTISRDNAKNTVYLQINSLKPEDTAVYYCAAGILDLKLYFSSYDYWGQGTQVTVSS
- polyreactivity (PSR sort gate): low polyreactivity

Sequence: QVQLVESGGGIVQAGGSLRLSCAASGRIFEWYAMGWYRQAPGKERELVAAITKTAGSTYYADSVKGRFTISRDNAKNTVYLQMNSLKPEDTAVYYCNAKTYHSRRKVLRFDYWGQGTQVTVSS
- polyreactivity (PSR sort gate): low polyreactivity

Sequence: QVQLVESGGGLVQAGGSLRLRCAASGSIFGGNAMGWYRQAPGKEREMVATITDRGSSTYYADSVKGRFTISRDNAKNTGYLQMNSLKPEDTAVYYCATAFPDVPEHDYWGQGTQVTVSS
- polyreactivity (PSR sort gate): low polyreactivity

Sequence: QVQLVESGGGLVQAGGSHRLSCAASGIIFSGNAMGWYRQAPGKERELVAAITRGGRTYYADSVKGRFTISRDNAKNTVYLQMNSLKPEDTAVYYCNKRYRYKYDYWGQGTQVTVSS
- polyreactivity (PSR sort gate): high polyreactivity

Sequence: QVQLVESGGGLVQAGGSLRLSCAASGFTFIYYTMGWYRQAPGKEREFVAAISWGGSTYYADSVKGRFTISRDNAKITVYLLMNSLKPEDTAVYYCNAVSAVAYTRFVYWGQGTQVTVSS
- polyreactivity (PSR sort gate): high polyreactivity

Sequence: QVQLVESGGGLVQAGGSLRLSCAASGSTFFFNAMGWYRQAPGKERELVAAITGRSGSTYYADSVKGRFTISRDNAKNTVYLQMNSLKPEDTAVYYCAADFSPWRSDFDYWGQGTQVTVTS
- polyreactivity (PSR sort gate): low polyreactivity

Sequence: QVQLVQSGGGLVQAGGSLRLSCAASGSIFYDYAMGWYRQAPGKERELVAAINSGVSTSYADSVKGRFTISRDNAKNTVYLQMNSLKPEDTAVYYCAKDGSSPSPWYGGFGYWGQGTQVTVSS
- polyreactivity (PSR sort gate): low polyreactivity

Sequence: QVQLLESGGGLVQAGGSLRLSCAASGGTFRPYAMGWYRQAPGKERELVAAISFTGSTYYADSVKGRFTISRDNAKNTVYLQMNSLKPEDTAVYYCAKDFWYPPRFDYWGQGTQVTVSS
- polyreactivity (PSR sort gate): low polyreactivity

Sequence: QVQLVESGGGLVQAGGSLRLSCAASGSTFSNNAMGWYRQAPGKERELVATISQSGGSTYYADSVKGRFTISRDNAKNTVYLQMNSLKPEDTAVYYCNAESYLTGWWYDYWGQGTQVTVSS
- polyreactivity (PSR sort gate): high polyreactivity

Sequence: QVQLVESGGGLVQAGGSLRLSCAASGSIFWQYAMGWYRQAPGKERELVAAINWSGDTTYYADSVKGRFTISRDNAKNTVYLQMNSLKPEDTAVYYCAAVGGVSFGGSPKTHAGEDYWGQGTQVTVSS
- polyreactivity (PSR sort gate): low polyreactivity

Sequence: QVQLVESGGVLVQAGGSLRLSCAASGRTFYLYAMGWSRQAPGKERELVAAISRSGGITYYADSVKGRFTISRDNAKNTVYLQMNSLKPEDTAVYYCAASRAGGYYGKGYSWGQGTQVTVSS
- polyreactivity (PSR sort gate): high polyreactivity

Sequence: QVQLVDSGGGLVQAGGSLRLSSAASGSTFAVNAMGWYIQARGKERELVAAISDSDGSTFYADSVKGRFTISRDNAKNTVYLQMNSLKPEDTAVYYCAATVYRVFRYSYLYYYWGQGTQVTVSS
- polyreactivity (PSR sort gate): low polyreactivity

Sequence: QVQLVESGGGLVQAGGSLRLSCAASGRTFSDYAMGWYRQAPGKERELVAAITSSSGTTYYADSVKGRFTISRDNAKNTVYFQMNSLKPEDTAVYYCAAGHPYSLSERYNYWGQGTQVTVSS
- polyreactivity (PSR sort gate): low polyreactivity

Sequence: QVQLVESGGGLVQAGGSLRLSCAASGSIFHRYAMGWYRQAPGKEREFVAAISGRGGSTYYADSVKGRFTISRDNAKNSVYLQMNSLKPEDTAVYYCAADSSRFYGRPRYYYWGQGTQVTVSS
- polyreactivity (PSR sort gate): high polyreactivity

Sequence: QVQLQESGGGLVQAGGSLRLSCAASGTISDSGLMGWYRQAPGKERELVAGISSGGITNYADSVKGRFTISRDNAKNTVYLQMNSLKPDDTAVYWGQGTQVTVSS
- polyreactivity (PSR sort gate): low polyreactivity
